Assay results from PMC8315899 (Nature structural & molecular biology, 2021).

Target: the molecule itself
Test: cryo-EM structure

B1: STRN3 (striatin 3), recombinant (natural protein, human, UniProt Q13033-2 1-713, looked up)
chain: MDELAGGGGGGPGMAAPPRQQQGPGGNLGLSPGGNGAAGGGGPPASEGAGPAAGPELSRPQQYTIPGILHYIQHEWARFEMERAHWEVERAELQARIAFLQGERKGQENLKKDLVRRIKMLEYALKQERAKYHKLKYGTELNQGDLKMPTFESEETKDTEAPTAPQNSQLTWKQGRQLLRQYLQEVGYTDTILDVRSQRVRSLLGLSNSEPNGSVETKNLEQILNGGESPKQKGQEIKRSSGDVLETFNFLENADDSDEDEENDMIEGIPEGKDKHRMNKHKIGNEGLAADLTDDPDTEEALKEFDFLVTAEDGEGAGEARSSGDGTEWAEPITFPSGGGKSFIMGSDDVLLSVLGLGDLADLTVTNDADYSYDLPANKDAFRKTWNPKYTLRSHFDGVRALAFHPVEPVLVTASEDHTLKLWNLQKTVPAKKSASLDVEPIYTFRAHIGPVLSLAISSNGEQCFSGGIDATIQWWNMPSPSVDPYDTYEPNVLAGTLVGHTDAVWGLAYSGIKNQLLSCSADGTVRLWNPQEKLPCICTYNGDKKHGIPTSVDFIGCDPAHMVTSFNTGSAVIYDLETSQSLVILSSQVDSGLQSNNHINRVVSHPTLPVTITAHEDRHIKFFDNKTGKMIHSMVAHLDAVTSLAVDPNGIYLMSGSHDCSIRLWNLDSKTCVQEITAHRKKLDESIYDVAFHSSKAYIASAGADALAKVFV
stoichiometry N: 4
